Results from PMC11044841.

Experiments:
PABP1 = assay: mass spectrometry of G3BP1-GFP interactome; settings: HEK293T G3BP1/2 DKO cells; read off a plot
P121C = assay: mass spectrometry of G3BP1-GFP interactome; settings: HEK293T G3BP1/2 DKO cells; read off a plot
PABP4 = assay: mass spectrometry of G3BP1-GFP interactome; settings: HEK293T G3BP1/2 DKO cells; read off a plot
NU205 = assay: mass spectrometry of G3BP1-GFP interactome; settings: HEK293T G3BP1/2 DKO cells; read off a plot
IMB1 = assay: mass spectrometry of G3BP1-GFP interactome; settings: HEK293T G3BP1/2 DKO cells; read off a plot
NUFP2 = assay: mass spectrometry of G3BP1-GFP interactome; settings: HEK293T G3BP1/2 DKO cells; read off a plot
RS3 = assay: mass spectrometry of G3BP1-GFP interactome; settings: HEK293T G3BP1/2 DKO cells; read off a plot
P121A = assay: mass spectrometry of G3BP1-GFP interactome; settings: HEK293T G3BP1/2 DKO cells; read off a plot
NUP93 = assay: mass spectrometry of G3BP1-GFP interactome; settings: HEK293T G3BP1/2 DKO cells; read off a plot
RBP2 = assay: mass spectrometry of G3BP1-GFP interactome; settings: HEK293T G3BP1/2 DKO cells; read off a plot
DDX6 = assay: mass spectrometry of G3BP1-GFP interactome; settings: HEK293T G3BP1/2 DKO cells; read off a plot
[1] = biological target: GST-NTF2L (GST-tagged NTF2-like domain of G3BP1) (human); assay: SPR
TRAP1 = assay: mass spectrometry of G3BP1-GFP interactome; settings: HEK293T G3BP1/2 DKO cells; read off a plot
PRC2C = assay: mass spectrometry of G3BP1-GFP interactome; settings: HEK293T G3BP1/2 DKO cells; read off a plot

N-WT (1–25) peptide, sequence (P0DTC9 1-25): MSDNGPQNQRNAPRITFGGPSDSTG

G3BP1-EGFP (from UniProt Q13283) F33W
other: Log2(fold change) (PABP1): -4.1 | other: Log2(fold change) (P121C): 2.5 | other: Log2(fold change) (PABP4): -8.9 | other: Log2(fold change) (NU205): 8.7 | other: Log2(fold change) (IMB1): 6.7 | other: Log2(fold change) (NUFP2): -9.7 | other: Log2(fold change) (RS3): -6.4 | other: Log2(fold change) (P121A): 2.9 | other: Log2(fold change) (NUP93): 8.4 | other: Log2(fold change) (RBP2): 8.9

G3BP1-EGFP (from UniProt Q13283) V11A
other: Log2(fold change) (DDX6): -2.3

N-WT (1–25) peptide (from UniProt P0DTC9 1-25)
Kd [1]: 1140 nM

G3BP1-EGFP (from UniProt Q13283) F124W
other: Log2(fold change) (IMB1): 6.2 | other: Log2(fold change) (TRAP1): 6

G3BP1-EGFP (from UniProt Q13283) F112A
other: Log2(fold change) (DDX6): -2.7 | other: Log2(fold change) (PRC2C): 5.8
